Experimental data from publication PMC4728371 (Genome Research, 2016).

Target: the molecule itself
Assay: SEC-MALS

B1: ZAK LZ-SAM (residues 286-410), purified (domain or fragment, human, UniProt Q9NYL2-1 286-410, looked up)
chain: EIEATLERLKKLERDLSFKEQELKERERRLKMWEQKLTEQSNTPLLPSFEIGAWTEDDVYCWVQQLVRKGDSSAEMSVYASLFKENNITGKRLLLLEEEDLKDMGIVSKGHIIHFKSAIEKLTHD
  stoichiometry N: 2
